# Assay results reported in the supplement of paper PMC10065799, “High-throughput profiling of sequence recognition by tyrosine kinases and SH2 domains using bacterial peptide display” (eLife, 2023).
# How the values were obtained:
# SHP2-C SH2 = assay: SH2 binding enrichment of the phosphorylated peptide, bacterial display (enrichment ratio); higher = better substrate or ligand; peptides without Tyr show the background
# Grb2 SH2 = Grb2 SH2 (UniProt P62993); assay: as above
# c-Src SH2 = assay: as above
# EPHB2 = EPHB2 (UniProt P29323); assay: phosphorylation enrichment, bacterial display (enrichment ratio); higher = better substrate or ligand; peptides without Tyr show the background
# Jak2 = Jak2 (UniProt O60674); assay: as above
# FGFR1 = FGFR1 (UniProt P11362); assay: as above
# AncSZ = assay: as above
# c-Src = assay: as above
# FGFR3 = FGFR3 (UniProt P22607); assay: as above
# Fyn = Fyn (UniProt P06241); assay: as above
# Fer (mouse) = assay: as above
# Hck = Hck (UniProt P08631); assay: as above
# MERTK = MERTK (UniProt Q12866); assay: as above
# c-Abl (mouse) = assay: as above
# EPHB1 = EPHB1 (UniProt P54762); assay: as above
# Fes = Fes (UniProt P07332); assay: as above
# 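Wherever SH2 binding enrichment of the phosphorylated peptide, bacterial display is given: peptide library displayed on the E. coli surface as eCPX fusions, selected cells deep-sequenced, score is each peptide's frequency after selection divided by its frequency in the input.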
# 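Wherever phosphorylation enrichment, bacterial display is given: 11-residue human phosphosite peptides and single-mutation variants displayed on the E. coli surface, counted by deep sequencing, each peptide's frequency after selection divided by its frequency in the unselected input library; frequency after pTyr selection over input frequency; kinase dosed for 20-30% of maximal phosphorylation in three min.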
# Sequence of Jak2 (O60674 whole entry, looked up): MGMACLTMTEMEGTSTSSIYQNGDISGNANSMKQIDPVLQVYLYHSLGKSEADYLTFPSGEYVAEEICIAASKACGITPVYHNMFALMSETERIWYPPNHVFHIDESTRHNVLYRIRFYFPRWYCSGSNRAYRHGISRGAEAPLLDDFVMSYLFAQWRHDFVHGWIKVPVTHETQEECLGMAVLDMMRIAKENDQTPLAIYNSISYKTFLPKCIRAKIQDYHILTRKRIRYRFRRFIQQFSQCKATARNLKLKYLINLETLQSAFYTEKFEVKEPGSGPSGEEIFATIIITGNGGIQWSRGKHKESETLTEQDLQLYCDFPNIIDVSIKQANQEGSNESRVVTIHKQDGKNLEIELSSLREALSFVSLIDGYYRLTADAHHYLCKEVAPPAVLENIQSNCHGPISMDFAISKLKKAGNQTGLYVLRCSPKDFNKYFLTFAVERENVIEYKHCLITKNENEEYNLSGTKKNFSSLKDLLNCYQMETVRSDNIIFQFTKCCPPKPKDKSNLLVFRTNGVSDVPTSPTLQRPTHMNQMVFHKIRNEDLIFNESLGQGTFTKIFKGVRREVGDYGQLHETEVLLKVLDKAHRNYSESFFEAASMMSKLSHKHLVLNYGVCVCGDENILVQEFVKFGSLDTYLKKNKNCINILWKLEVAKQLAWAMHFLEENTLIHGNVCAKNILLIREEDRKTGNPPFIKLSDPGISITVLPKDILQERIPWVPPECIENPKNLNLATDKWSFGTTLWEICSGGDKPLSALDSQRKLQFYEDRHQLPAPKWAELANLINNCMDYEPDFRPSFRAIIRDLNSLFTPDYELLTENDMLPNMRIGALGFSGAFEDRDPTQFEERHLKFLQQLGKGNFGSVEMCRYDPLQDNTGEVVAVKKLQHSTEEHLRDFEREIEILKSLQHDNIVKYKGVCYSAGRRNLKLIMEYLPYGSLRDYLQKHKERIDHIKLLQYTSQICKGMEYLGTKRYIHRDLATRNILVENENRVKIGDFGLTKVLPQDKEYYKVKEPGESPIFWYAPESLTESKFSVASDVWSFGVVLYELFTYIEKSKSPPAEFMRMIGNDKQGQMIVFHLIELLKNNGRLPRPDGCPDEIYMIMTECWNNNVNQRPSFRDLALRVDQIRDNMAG
# Sequence of Grb2 SH2 (P62993 whole entry, looked up): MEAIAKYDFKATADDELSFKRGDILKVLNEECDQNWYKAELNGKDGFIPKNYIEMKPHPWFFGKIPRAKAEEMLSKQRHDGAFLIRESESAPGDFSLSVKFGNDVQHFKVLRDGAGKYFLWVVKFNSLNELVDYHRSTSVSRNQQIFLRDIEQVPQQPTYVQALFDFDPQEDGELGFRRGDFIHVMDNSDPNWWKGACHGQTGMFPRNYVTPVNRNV
# Sequence of Hck (P08631 whole entry, looked up): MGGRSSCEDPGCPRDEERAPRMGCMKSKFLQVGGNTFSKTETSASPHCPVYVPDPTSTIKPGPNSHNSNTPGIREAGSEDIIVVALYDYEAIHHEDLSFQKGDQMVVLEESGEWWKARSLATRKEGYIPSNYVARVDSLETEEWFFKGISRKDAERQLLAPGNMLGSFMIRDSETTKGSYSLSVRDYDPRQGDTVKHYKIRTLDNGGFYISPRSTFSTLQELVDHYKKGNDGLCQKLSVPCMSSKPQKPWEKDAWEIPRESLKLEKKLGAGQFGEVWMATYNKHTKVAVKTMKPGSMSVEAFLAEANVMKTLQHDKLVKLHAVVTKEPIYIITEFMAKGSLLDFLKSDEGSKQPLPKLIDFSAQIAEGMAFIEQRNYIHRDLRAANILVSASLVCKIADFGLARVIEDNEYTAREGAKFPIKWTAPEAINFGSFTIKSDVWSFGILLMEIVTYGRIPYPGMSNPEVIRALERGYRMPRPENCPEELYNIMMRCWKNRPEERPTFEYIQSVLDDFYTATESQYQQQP
# Sequence of FGFR3 (P22607 whole entry, looked up): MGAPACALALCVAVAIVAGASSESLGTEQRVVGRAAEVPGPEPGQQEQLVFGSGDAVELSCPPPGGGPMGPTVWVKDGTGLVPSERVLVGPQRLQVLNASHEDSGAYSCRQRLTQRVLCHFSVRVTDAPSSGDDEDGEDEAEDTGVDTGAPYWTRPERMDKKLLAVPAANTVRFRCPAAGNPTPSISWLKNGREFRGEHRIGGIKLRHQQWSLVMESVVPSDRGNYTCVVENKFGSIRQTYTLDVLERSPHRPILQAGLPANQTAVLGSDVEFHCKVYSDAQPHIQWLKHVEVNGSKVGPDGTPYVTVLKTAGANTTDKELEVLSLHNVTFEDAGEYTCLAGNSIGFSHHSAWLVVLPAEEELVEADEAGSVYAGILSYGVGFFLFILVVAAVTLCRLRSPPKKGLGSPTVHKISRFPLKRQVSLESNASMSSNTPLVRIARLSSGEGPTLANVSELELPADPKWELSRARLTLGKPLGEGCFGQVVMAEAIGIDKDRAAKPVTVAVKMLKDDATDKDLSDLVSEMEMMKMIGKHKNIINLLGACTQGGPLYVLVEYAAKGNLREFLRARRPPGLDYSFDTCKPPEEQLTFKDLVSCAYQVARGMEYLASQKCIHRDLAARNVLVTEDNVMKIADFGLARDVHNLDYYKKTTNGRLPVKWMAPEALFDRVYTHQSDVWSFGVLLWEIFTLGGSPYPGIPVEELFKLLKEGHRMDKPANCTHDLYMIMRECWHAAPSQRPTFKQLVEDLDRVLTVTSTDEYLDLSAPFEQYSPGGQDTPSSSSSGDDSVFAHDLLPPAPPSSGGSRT
# Sequence of EPHB2 (P29323 whole entry, looked up): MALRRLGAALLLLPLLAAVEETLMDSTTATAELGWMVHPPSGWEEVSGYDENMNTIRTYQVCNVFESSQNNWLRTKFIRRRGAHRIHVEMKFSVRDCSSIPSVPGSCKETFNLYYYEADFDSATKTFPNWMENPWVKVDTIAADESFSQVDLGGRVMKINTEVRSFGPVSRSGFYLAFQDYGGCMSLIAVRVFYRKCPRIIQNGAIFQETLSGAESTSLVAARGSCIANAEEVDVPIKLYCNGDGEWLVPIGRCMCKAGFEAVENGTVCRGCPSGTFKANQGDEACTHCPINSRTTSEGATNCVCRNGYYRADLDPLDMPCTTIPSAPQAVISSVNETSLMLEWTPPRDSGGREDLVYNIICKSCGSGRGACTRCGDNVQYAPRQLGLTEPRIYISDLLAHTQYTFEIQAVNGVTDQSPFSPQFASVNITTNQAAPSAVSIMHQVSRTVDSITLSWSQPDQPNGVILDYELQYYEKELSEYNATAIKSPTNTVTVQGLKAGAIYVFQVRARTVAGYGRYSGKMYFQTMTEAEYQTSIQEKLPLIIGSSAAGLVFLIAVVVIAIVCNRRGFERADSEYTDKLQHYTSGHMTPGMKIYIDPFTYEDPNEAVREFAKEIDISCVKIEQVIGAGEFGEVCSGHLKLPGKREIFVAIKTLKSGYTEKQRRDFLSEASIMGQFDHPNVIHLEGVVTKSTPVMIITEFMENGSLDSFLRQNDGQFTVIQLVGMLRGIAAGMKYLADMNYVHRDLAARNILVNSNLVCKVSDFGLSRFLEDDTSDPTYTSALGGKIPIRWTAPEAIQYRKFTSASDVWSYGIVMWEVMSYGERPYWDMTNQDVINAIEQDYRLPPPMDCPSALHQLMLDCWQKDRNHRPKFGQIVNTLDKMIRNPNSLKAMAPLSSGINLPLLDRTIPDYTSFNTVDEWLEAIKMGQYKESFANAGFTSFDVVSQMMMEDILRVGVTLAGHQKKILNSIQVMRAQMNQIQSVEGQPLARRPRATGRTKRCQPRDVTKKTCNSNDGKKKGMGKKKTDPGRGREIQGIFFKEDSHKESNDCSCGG
# Sequence of EPHB1 (P54762 whole entry, looked up): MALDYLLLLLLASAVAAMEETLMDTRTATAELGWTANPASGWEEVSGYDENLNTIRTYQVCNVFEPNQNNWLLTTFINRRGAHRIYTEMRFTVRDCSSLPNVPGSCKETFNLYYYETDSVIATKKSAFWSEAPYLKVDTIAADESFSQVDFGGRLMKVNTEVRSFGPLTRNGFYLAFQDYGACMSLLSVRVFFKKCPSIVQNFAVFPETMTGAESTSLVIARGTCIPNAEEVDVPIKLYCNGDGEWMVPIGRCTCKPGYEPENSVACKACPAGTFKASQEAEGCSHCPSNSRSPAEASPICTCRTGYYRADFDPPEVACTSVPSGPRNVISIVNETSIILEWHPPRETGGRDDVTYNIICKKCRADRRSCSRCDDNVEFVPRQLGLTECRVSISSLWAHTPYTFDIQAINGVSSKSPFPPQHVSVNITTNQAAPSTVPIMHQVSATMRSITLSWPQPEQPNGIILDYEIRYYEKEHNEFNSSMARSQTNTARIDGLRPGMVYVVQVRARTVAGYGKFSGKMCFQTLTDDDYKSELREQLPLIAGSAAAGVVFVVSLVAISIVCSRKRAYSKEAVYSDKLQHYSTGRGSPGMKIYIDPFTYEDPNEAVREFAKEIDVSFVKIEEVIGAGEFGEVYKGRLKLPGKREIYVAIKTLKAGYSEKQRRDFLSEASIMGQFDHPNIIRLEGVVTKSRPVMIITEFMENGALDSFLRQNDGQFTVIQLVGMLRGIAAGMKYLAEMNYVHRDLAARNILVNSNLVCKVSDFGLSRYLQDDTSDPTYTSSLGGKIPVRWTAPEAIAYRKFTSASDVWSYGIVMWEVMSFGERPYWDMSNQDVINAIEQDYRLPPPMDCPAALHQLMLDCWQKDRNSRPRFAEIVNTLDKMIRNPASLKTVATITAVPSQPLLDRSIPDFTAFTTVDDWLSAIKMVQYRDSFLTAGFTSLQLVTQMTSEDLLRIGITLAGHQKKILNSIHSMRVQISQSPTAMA
Sequence,SH2 binding enrichment (SHP2-C SH2),SH2 binding enrichment (Grb2 SH2),SH2 binding enrichment (c-Src SH2),phosphorylation enrichment (EPHB2),phosphorylation enrichment (Jak2),phosphorylation enrichment (FGFR1),phosphorylation enrichment (AncSZ),phosphorylation enrichment (c-Src),phosphorylation enrichment (FGFR3),phosphorylation enrichment (Fyn),phosphorylation enrichment (Fer (mouse)),phosphorylation enrichment (Hck),phosphorylation enrichment (MERTK),phosphorylation enrichment (c-Abl (mouse)),phosphorylation enrichment (EPHB1),phosphorylation enrichment (Fes)
GKTQQYECKWY [BCR_Y751_D752E],0.584,0.677,0.735,0.6,0.97,0.499,0.936,0.522,0.642,0.443,0.549,0.447,0.487,0.681,0.507,1.05
RFFTTYDTNGR [CLCA1_Y665_YF],1.67,0.825,0.532,0.834,0.816,0.674,1.08,1.09,0.878,0.627,0.688,0.787,0.707,0.858,0.726,0.951
ISHVAYRVLGK [TRRAP_Y892],0.732,0.775,0.488,0.365,0.426,0.423,0.634,0.416,0.402,0.394,0.338,0.348,0.34,0.477,0.31,0.597
HHFAAYFQQGD [GPI_Y351_R347H],0.898,1.21,0.661,0.602,0.989,0.669,0.906,0.725,1.19,0.418,0.435,0.549,0.475,0.945,0.581,1.13
DQVEQYNKELE [LMNA_Y259_K260N],0.81,0.882,0.441,0.672,1.17,0.552,1.09,0.459,0.762,0.558,0.494,0.581,0.418,0.692,0.683,1.23
GVIRHSVVCST [BTK_Y334_Y334S],0.637,0.996,0.586,0.456,0.67,0.453,0.783,0.45,0.51,0.42,0.477,0.436,0.446,0.607,0.508,0.82
HFGNNYTDVLQ [MACC1_Y803_R804T_YF],3.84,0.711,3.44,0.471,0.578,0.544,0.874,0.66,0.733,0.517,0.573,0.426,0.638,0.761,1.61,0.967
DFSLKYATDIP [APC_Y1183_YF],0.737,0.781,0.457,0.619,0.897,0.592,0.914,0.378,0.668,0.524,0.536,0.47,0.374,0.572,0.606,1.08
CTTIHYMYMCN [TP53_Y234_N235M],2.59,0.998,1.06,0.517,0.973,0.485,1.06,0.332,0.772,0.362,0.556,0.45,0.34,0.681,0.62,1.14
HGVSSYDTIIS [LDLR_Y465_V468I],0.546,0.546,10.6,0.819,1.08,0.944,1.06,1.03,0.785,0.669,0.712,0.738,0.797,1.63,0.827,1.08
PYYTSYPPSPD [GDAP2_Y491],1.01,0.728,1.28,5.06,3.58,4.8,1.38,6.44,3.57,5.09,0.676,2.39,9.55,1.67,3.43,1.03
SIKHKYVTALF [KCNH2_Y611_D609H_YF],0.901,0.78,0.473,0.474,0.694,0.354,0.674,0.402,0.511,0.377,0.416,0.419,0.4,0.524,0.471,0.622
RVSSVYTRSTG [CCR5_Y339_A335V],1.1,1.17,0.517,0.867,1.02,0.936,1.18,0.853,0.945,1.1,0.984,1.13,0.665,0.873,0.945,1.22
TPGPNYRPGFN [USH2A_Y463_YF],0.505,0.776,0.416,0.436,0.675,0.647,0.707,0.452,0.646,0.536,0.498,0.586,0.87,0.576,0.531,0.716
AGKEEYSAMRD [HRAS_Y64_Q61K],0.559,0.867,0.761,0.505,0.644,0.529,0.799,0.436,0.582,0.432,0.481,0.49,0.44,0.629,0.467,0.871
GLTSTYAGIRK [ROBO1_Y932],14.7,0.895,1.28,0.492,0.548,0.342,0.525,1.52,0.372,1.46,0.521,6.69,0.497,0.724,0.303,0.66
